Laboratory results from the supplement of paper PMC9112550, “Optimization of the antimicrobial peptide Bac7 by deep mutational scanning” (BMC Biology, 2022).

Tested on: Escherichia coli TOP10
Assay: shrunken log2 fold change of peptide-encoding DNA abundance (4.5 h post-induction vs induction); higher = less antimicrobial activity (less host growth inhibition)
Conditions: time post-induction: 4.5 h; library: site-saturation at positions 5, 18, 19, 20
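Note: peptides expressed intracellularly from a pBAD plasmid library in pooled LB shake-flask culture, induced with 0.3% L-arabinose, DNA abundance read by NGS, three biological replicates, DESeq2 with apeglm shrinkage.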

RRIRIRPPRLPRPRPRPERSPRP
shrunken log2 fold change: -0.164

RRIRIRPPRLPRPRPRPESKPRP
shrunken log2 fold change: -0.208

RRIRIRPPRLPRPRPRPESLPRP
shrunken log2 fold change: -0.23

RRIRIRPPRLPRPRPRPESYPRP
shrunken log2 fold change: 0.0064

RRIRIRPPRLPRPRPRPETHPRP
shrunken log2 fold change: -0.413

RRIRIRPPRLPRPRPRPETYPRP
shrunken log2 fold change: -0.263

RRIRIRPPRLPRPRPRPEVYPRP
shrunken log2 fold change: -0.0738

RRIRIRPPRLPRPRPRPEYSPRP
shrunken log2 fold change: -0.119

RRIRIRPPRLPRPRPRPEYTPRP
shrunken log2 fold change: 0.0624

RRIRIRPPRLPRPRPRPFAKPRP
shrunken log2 fold change: -0.295

RRIRIRPPRLPRPRPRPFANPRP
shrunken log2 fold change: -0.0225

RRIRIRPPRLPRPRPRPFARPRP
shrunken log2 fold change: -0.0891

RRIRIRPPRLPRPRPRPFCRPRP
shrunken log2 fold change: 0.087

RRIRIRPPRLPRPRPRPFECPRP
shrunken log2 fold change: -0.0837

RRIRIRPPRLPRPRPRPFENPRP
shrunken log2 fold change: -0.00783

RRIRIRPPRLPRPRPRPFFQPRP
shrunken log2 fold change: -0.412

RRIRIRPPRLPRPRPRPFGHPRP
shrunken log2 fold change: -0.272

RRIRIRPPRLPRPRPRPFGNPRP
shrunken log2 fold change: -0.118

RRIRIRPPRLPRPRPRPFGQPRP
shrunken log2 fold change: -0.259

RRIRIRPPRLPRPRPRPFHHPRP
shrunken log2 fold change: 0.0886

RRIRIRPPRLPRPRPRPFIYPRP
shrunken log2 fold change: -0.899

RRIRIRPPRLPRPRPRPFKFPRP
shrunken log2 fold change: -0.702

RRIRIRPPRLPRPRPRPFLSPRP
shrunken log2 fold change: -0.282

RRIRIRPPRLPRPRPRPFLWPRP
shrunken log2 fold change: -0.0429

RRIRIRPPRLPRPRPRPFMAPRP
shrunken log2 fold change: -0.397

RRIRIRPPRLPRPRPRPFMNPRP
shrunken log2 fold change: -0.16

RRIRIRPPRLPRPRPRPFMQPRP
shrunken log2 fold change: -0.91

RRIRIRPPRLPRPRPRPFNEPRP
shrunken log2 fold change: -0.331

RRIRIRPPRLPRPRPRPFPQPRP
shrunken log2 fold change: -0.549

RRIRIRPPRLPRPRPRPFPYPRP
shrunken log2 fold change: -0.288

RRIRIRPPRLPRPRPRPFQAPRP
shrunken log2 fold change: -0.0938

RRIRIRPPRLPRPRPRPFTGPRP
shrunken log2 fold change: -1.27

RRIRIRPPRLPRPRPRPFVEPRP
shrunken log2 fold change: -0.37

RRIRIRPPRLPRPRPRPFVPPRP
shrunken log2 fold change: -0.722

RRIRIRPPRLPRPRPRPFWLPRP
shrunken log2 fold change: 0.183

RRIRIRPPRLPRPRPRPFWRPRP
shrunken log2 fold change: -0.00848

RRIRIRPPRLPRPRPRPFYRPRP
shrunken log2 fold change: -0.194

RRIRIRPPRLPRPRPRPFYWPRP
shrunken log2 fold change: -0.12

RRIRIRPPRLPRPRPRPGCAPRP
shrunken log2 fold change: 0.185

RRIRIRPPRLPRPRPRPGCYPRP
shrunken log2 fold change: -0.715

RRIRIRPPRLPRPRPRPGDQPRP
shrunken log2 fold change: -0.0693

RRIRIRPPRLPRPRPRPGDRPRP
shrunken log2 fold change: -0.123

RRIRIRPPRLPRPRPRPGEFPRP
shrunken log2 fold change: -0.0994

RRIRIRPPRLPRPRPRPGEYPRP
shrunken log2 fold change: -0.161

RRIRIRPPRLPRPRPRPGFNPRP
shrunken log2 fold change: -0.135

RRIRIRPPRLPRPRPRPGFPPRP
shrunken log2 fold change: 0.186

RRIRIRPPRLPRPRPRPGGPPRP
shrunken log2 fold change: 0.0365

RRIRIRPPRLPRPRPRPGGRPRP
shrunken log2 fold change: 0.229

RRIRIRPPRLPRPRPRPGHCPRP
shrunken log2 fold change: -0.247

RRIRIRPPRLPRPRPRPGHNPRP
shrunken log2 fold change: -0.0704

RRIRIRPPRLPRPRPRPGICPRP
shrunken log2 fold change: -0.0709

RRIRIRPPRLPRPRPRPGIDPRP
shrunken log2 fold change: -0.00862

RRIRIRPPRLPRPRPRPGLKPRP
shrunken log2 fold change: 0.0429

RRIRIRPPRLPRPRPRPGMKPRP
shrunken log2 fold change: -0.126

RRIRIRPPRLPRPRPRPGNLPRP
shrunken log2 fold change: -0.175

RRIRIRPPRLPRPRPRPGPGPRP
shrunken log2 fold change: 0.385

RRIRIRPPRLPRPRPRPGPWPRP
shrunken log2 fold change: 0.0988

RRIRIRPPRLPRPRPRPGQLPRP
shrunken log2 fold change: 0.0335

RRIRIRPPRLPRPRPRPGQWPRP
shrunken log2 fold change: -0.124

RRIRIRPPRLPRPRPRPGREPRP
shrunken log2 fold change: 0.311

RRIRIRPPRLPRPRPRPGSNPRP
shrunken log2 fold change: -0.515

RRIRIRPPRLPRPRPRPGSVPRP
shrunken log2 fold change: -0.258

RRIRIRPPRLPRPRPRPGTFPRP
shrunken log2 fold change: -0.0863

RRIRIRPPRLPRPRPRPGTVPRP
shrunken log2 fold change: -0.624

RRIRIRPPRLPRPRPRPGVGPRP
shrunken log2 fold change: 0.435

RRIRIRPPRLPRPRPRPGVNPRP
shrunken log2 fold change: -0.319

RRIRIRPPRLPRPRPRPGWIPRP
shrunken log2 fold change: -0.14

RRIRIRPPRLPRPRPRPHAPPRP
shrunken log2 fold change: 0.2

RRIRIRPPRLPRPRPRPHCQPRP
shrunken log2 fold change: -0.173

RRIRIRPPRLPRPRPRPHDDPRP
shrunken log2 fold change: -0.177

RRIRIRPPRLPRPRPRPHDRPRP
shrunken log2 fold change: -0.289

RRIRIRPPRLPRPRPRPHEIPRP
shrunken log2 fold change: -0.256

RRIRIRPPRLPRPRPRPHEQPRP
shrunken log2 fold change: -0.288

RRIRIRPPRLPRPRPRPHERPRP
shrunken log2 fold change: -0.169

RRIRIRPPRLPRPRPRPHFTPRP
shrunken log2 fold change: -0.0792
